The results in this text go back to PMC5436757, “In vivo and in vitro characterization of DdrC, a DNA damage response protein in Deinococcus radiodurans bacterium”.

Data set [1] addresses T1, DdrC (Deinococcus radiodurans R1 ATCC 13939, UniProt Q9RYE6 1-231).
T1 sequence: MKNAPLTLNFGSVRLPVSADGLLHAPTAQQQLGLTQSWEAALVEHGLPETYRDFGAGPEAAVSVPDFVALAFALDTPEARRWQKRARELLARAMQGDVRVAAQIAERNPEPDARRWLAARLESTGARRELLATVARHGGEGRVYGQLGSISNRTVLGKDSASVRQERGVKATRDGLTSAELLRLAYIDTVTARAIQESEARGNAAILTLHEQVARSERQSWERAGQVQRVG
Briefly: EMSA; same efficiency as 37% GC 81-mer; DdrC 0.175-2.8 uM; Buffer A: 40 mM Tris-HCl pH 7.8, 5 mM MgCl2, 1.5 mM DTT, 50 mM NaCl, 12% glycerol; 4 C (15 min stated for plasmid/viral DNA); gels run at 4 C. Conditions: protein: recombinant; tags: C-terminal 6xHis (pET26b); label: 5' Cy5. Background: In EMSA bound probe runs differently from free probe, usually more slowly.

Data set [2] addresses T1, DdrC. Briefly: EMSA; discrete complex band appears at 40 nM DdrC; 3.3 nM DNA; Buffer A: 40 mM Tris-HCl pH 7.8, 5 mM MgCl2, 1.5 mM DTT, 50 mM NaCl, 12% glycerol; 4 C (15 min stated for plasmid/viral DNA); gels run at 4 C. The settings on record: protein: recombinant; tags: C-terminal 6xHis (pET26b).
Data set [3] concerns the target T1, DdrC. Briefly: EMSA; same efficiency as 65.4% GC 81-mer; DdrC 0.175-2.8 uM; Buffer A: 40 mM Tris-HCl pH 7.8, 5 mM MgCl2, 1.5 mM DTT, 50 mM NaCl, 12% glycerol; 4 C (15 min stated for plasmid/viral DNA); gels run at 4 C. The settings on record: protein: recombinant; tags: C-terminal 6xHis (pET26b); label: 5' Cy5.

B1: 81-mer 65.4% GC (ssDNA)
DNA: GTTGCTGGACGTACAGCGCCACTATGGCCGCCTGGGCTGGACCAGCGGCGAGATTCCGTCCGGGGGCTACCAGTTTCCCAT
B1: in the data set with DdrC [1], the binding result is “binds”.

B2: oligo-67 ss (ssDNA)
DNA: CTGTTTAAGAAATTCACCTCGAAAGCAAGCTGATAAACCGATACAATTAAAGGCTCCTTTTGGAGCC
For the molecule B2, the binding result with DdrC [2] is reported as “binds”.

B3: 81-mer 37% GC (ssDNA)
DNA: GATTACCACGAGGAGTATCTTAAGAATTCTGATATACTTGAAGAAGACATACAGGAACAAGAACAAAGACTGAACGAGCTT
In the case of B3, in the data set with DdrC [3], the binding result is reported as “binds”.
